Series [1] has as its target T1, P450Ema1 monooxygenase from Streptomyces tubercidicus strain R-922 (Streptomyces tubercidicus strain R-922).
T1 sequence: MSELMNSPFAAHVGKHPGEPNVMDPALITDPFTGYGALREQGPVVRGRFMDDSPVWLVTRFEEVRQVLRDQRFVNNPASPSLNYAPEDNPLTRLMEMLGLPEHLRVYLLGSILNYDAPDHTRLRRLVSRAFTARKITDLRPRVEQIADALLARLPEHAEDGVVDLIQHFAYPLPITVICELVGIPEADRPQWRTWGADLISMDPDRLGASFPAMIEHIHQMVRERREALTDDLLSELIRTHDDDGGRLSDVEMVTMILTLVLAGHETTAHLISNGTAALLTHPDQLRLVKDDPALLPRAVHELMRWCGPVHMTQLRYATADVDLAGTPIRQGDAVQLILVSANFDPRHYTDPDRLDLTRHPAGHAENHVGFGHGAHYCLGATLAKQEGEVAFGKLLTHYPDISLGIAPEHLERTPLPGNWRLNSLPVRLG
Kind of series: cell-based or functional assay.

For series [2], the target named is T2, P450Ema1A, N-terminally truncated P450Ema1 encoded by ema1A (Streptomyces tubercidicus strain R-922).
T2 sequence: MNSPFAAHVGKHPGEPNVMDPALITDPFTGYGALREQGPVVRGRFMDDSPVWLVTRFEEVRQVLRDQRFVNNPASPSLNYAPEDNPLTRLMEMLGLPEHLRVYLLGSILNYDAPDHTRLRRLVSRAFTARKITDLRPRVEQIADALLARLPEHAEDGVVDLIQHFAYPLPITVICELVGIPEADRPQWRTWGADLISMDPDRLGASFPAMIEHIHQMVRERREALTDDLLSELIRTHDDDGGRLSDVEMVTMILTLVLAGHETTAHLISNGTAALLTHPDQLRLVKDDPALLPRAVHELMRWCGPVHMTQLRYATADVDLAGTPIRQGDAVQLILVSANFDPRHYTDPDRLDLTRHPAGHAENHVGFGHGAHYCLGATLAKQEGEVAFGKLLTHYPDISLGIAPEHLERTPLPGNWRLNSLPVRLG
Kind of series: cell-based or functional assay.

Series [3] deals with T3, P450Ema2 monooxygenase from Streptomyces tubercidicus strain I-1529 (Streptomyces tubercidicus strain I-1529).
T3 sequence: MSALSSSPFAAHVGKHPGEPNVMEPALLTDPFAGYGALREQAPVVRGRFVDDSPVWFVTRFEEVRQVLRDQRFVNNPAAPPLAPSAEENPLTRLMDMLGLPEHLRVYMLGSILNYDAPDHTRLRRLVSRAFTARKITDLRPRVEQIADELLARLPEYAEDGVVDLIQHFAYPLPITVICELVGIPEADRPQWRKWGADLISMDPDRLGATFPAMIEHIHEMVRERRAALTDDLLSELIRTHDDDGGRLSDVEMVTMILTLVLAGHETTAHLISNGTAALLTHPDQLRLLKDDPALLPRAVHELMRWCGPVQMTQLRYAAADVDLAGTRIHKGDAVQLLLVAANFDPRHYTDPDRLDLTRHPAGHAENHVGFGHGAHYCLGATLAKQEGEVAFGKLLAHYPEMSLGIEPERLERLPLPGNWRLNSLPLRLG
Kind of series: cell-based or functional assay.

Series [4] concerns the target T4, ferredoxin encoded by fd233 from strain I-1529.
T4 chain: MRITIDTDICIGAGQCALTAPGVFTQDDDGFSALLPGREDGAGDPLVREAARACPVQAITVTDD

In series [5] the target is T5, ferredoxin encoded by fd233 from strain I-1529 (Streptomyces tubercidicus strain I-1529).
T5 sequence: T4 chain
In words: cell-based or functional assay.

B1: ferredoxin encoded by fd233 from strain I-1529 (protein)
chain: T4 chain
On to B1, for which, in series [1], the % Conversion of Avermectin, 2 hour (S. lividans ZX7 + pEAA-ema1/fd233, whole cells) came out at 8.26 % conversion; the % Conversion of Avermectin, 2 hour (S. lividans ZX7 + pTBBKA-ema1/fd233, whole cells) stood at 8.89 % conversion; the % Conversion of Avermectin, 2 hour (S. lividans ZX7 + pTUA-ema1/fd233, whole cells) is 23.3 % conversion; the % Conversion of Avermectin, 16 hour (Pseudomonas putida + pRK-ema1/fd233, whole cells) is 32 % conversion. Moreover, in series [1], the % Conversion of Avermectin, 16 hour (S. lividans ZX7 + pEAA-ema1/fd233, whole cells) turned out to be 10.7 % conversion; the % Conversion of Avermectin, 16 hour (S. lividans ZX7 + pTBBKA-ema1/fd233, whole cells) was 31 % conversion; the % Conversion of Avermectin, 16 hour (S. lividans ZX7 + pTUA-ema1/fd233, whole cells) amounted to 61.2 % conversion; the biocatalysis activity of pTUA-ema1/fd233 in S. lividans relative to pTUA-ema1 (fold) fell in the range of 1.5 to 3 fold. Further, in series [2], the % Conversion of avermectin, 16 hrs (S. avermitilis MOS-0001 + pTBBKA-ema1A/fd233, whole cells) was 28.5 % conversion and the % Conversion of avermectin, 16 hrs (S. avermitilis MOS-0001 + pTUA-ema1A/fd233, whole cells) was 24 % conversion. Also, in series [3], the % Conversion of Avermectin, 2 hour (S. lividans ZX7 + pTUA-ema2/fd233, whole cells) came to 1.85 % conversion and the % Conversion of Avermectin, 16 hour (S. lividans ZX7 + pTUA-ema2/fd233, whole cells) came out at 6.4 % conversion.

B2: ferredoxin reductase encoded by fre14 (protein)
chain: MAQNTAFIIAGAGLAGAKAAETLRAEGFGGPVLLLGDERERPYERPPLSKGYLLGTSEREKAYVHPPQWYAEHDVDLRLGNAVTALDPAGHEVTLADGSRLGYAKLLLATGSTPRRLPVPGADLDGVHTLRYLADSDRLKDLFRSASRIVVIGGGWIGLETTAAARAAGVEVTVLESAPLPLLGVLGREVAQVFADLHTEHGVALRCDTQVTEITGTNGAVDGVRLADGTRIAADAVIVGVGITPNSETAAAAGLKVDNGVVVDERLCSSHPDIYAAGDVANAYHPLLGKHLRVEHWANALHQPKTAARAMLGGEAGYDRLPYFFTDQYDLGMEYTGHVEPGGYDRVVFRGDTGAREFIAFWLSGGRVLAGMNVNVWDVTDPIRALVASGRAVDPERLADADVPLADLVP
Consider B2, for which the “biocatalysis activity, S. lividans ZX7 with ema1/fd233/fre operons in pTUA, pTBBKA and pEAA” value in series [4] is on record as “In each case there was no impact in S. lividans by any of the fre genes on biocatalysis activity”.

B3: ferredoxin reductase encoded by fre16 from strain I-1529 (enzyme)
chain: VVDAHQTFVIVGGGLAGAKAAETLRAEGFTGRVILICDERDHPYERPPLSKGFLLGKEERDSVFVHEPAWYAQAQIELHLGQPAVRLDPEAKTVRLGDGTLIAYDKLLLATGAEPRRLDIPGTGLAGVHHLRRLAHAERLRGVLASLGRDNGHLVIAGAGWIGLEVAAAARSYGAEVTVVEAAPTPLHGILGPELGGLFTELHRAHGVRFHFGARFTEIVGQDGMVLAVRTDDGEEHPAHDVLAAIGAAPRTALAEQAGLDLADPEAGGGVAVDATLRTSDPYIYAAGDVAAADHPLLDTRLRVEHWANALNGGPAAARAMLGQDISYDRVPYFFSDQYDVGMEYSGYAPPGSYAQVVCRGDVAKREFIAFWLGEDGRLLAGMNVNVWDVAETIQQLIRGGVRLEPGELADPEVPLTSLLP
With B3, in series [4], the “biocatalysis activity, S. lividans ZX7 with ema1/fd233/fre operons in pTUA, pTBBKA and pEAA” value is “In each case there was no impact in S. lividans by any of the fre genes on biocatalysis activity”. In series [5], this molecule gave a conversion of avermectin to 4″-keto-avermectin, P. putida ATCC 17453 with the ema1/fd233/fre16 operon (whole cell assay; 23% without fre16) of 44 % conversion.

B4: ferredoxin reductase encoded by fre12 (protein)
chain: MPAARRRLRPPHRSGDLPARPPGRAHPPRDRPGRHDLRPSRRGGGHRRMKSVAVIGASLAGLYAARSLRSQGFDGRLVIVGDECHGPYDRPPLSKDFLTGATDPGRLALADAEEIAELDAEWLLGTRATGLDTGGRTVLLDGGRSLTTDGVVLATGAAPRLLPGPVPAGVHTLRTLDDAQALRADLAPAPVRVVVIGGGFIGAEVASSCAALGHDVTVVEAAPLPLVPQLGHAMAEICAALHADHGVTLLTGTGVARLRSEGDGRRVTGVELTDGRLLPADVVVVGIGVRPRTAWLTDSGLPLDDGVLCDAGCVTPLPAVVAVGDVARVDGARAEHWTSATEQAAVAARNLLAGSTVATHRSLPYFWSDQYGVRIQFAGHRLPTDTPRVLEGSPDDRSFLACYERDGRTTAVLALNRPRPFMRLRRELARTALSATT
As to B4, the “biocatalysis activity, S. lividans ZX7 with ema1/fd233/fre operons in pTUA, pTBBKA and pEAA” value in series [4] was “In each case there was no impact in S. lividans by any of the fre genes on biocatalysis activity”.

B5: ferredoxin reductase encoded by fre3 (protein)
chain: VVDAHQTFVIVGGGLAGAKAAETLRAEGFTGRVILICDERDHPYERPPLSKGFLLGKEERDSVFVHEPAWYAQAQIELHLGQPAVRLDPEGRTVRLGDGTLIAYDKLLLATGAEPRRLDIPGTGLAGVHHLRRLAHAERLRGVLASLGRDNGHLVIAGAGWIGLEVAAAARSYGAEVTVVEAAPTPLHGILGPELGGLFTDLHREHGVRFHFGARFTEIVGEGGMVLAVRTDDGEEHPAHDVLAAIGAAPRTALAEQAGLDLADPETGGGVAVDAALRTSDPYIYAAGDVAAADHPLLDTRLRVEHWANALNGGPAAARAMLGQDISYDRIPYFFSDQYDVGMEYSGYAPPGSYAQVVCRGDVAKREFIAFWLAADGRLLAGMNVNVWDVAESIQQLIRSGAPLEPGALADPQVPLAALLP
For B5, the “biocatalysis activity, S. lividans ZX7 with ema1/fd233/fre operons in pTUA, pTBBKA and pEAA” value in series [4] is given as “In each case there was no impact in S. lividans by any of the fre genes on biocatalysis activity”.

The values are drawn from patent US20030068788A1.
